Reference: patent publication US20100190202A1, “NOVEL POPULATION OF HEPATOCYTES DERIVED VIA DEFINITIVE ENDODERM (DE-HEP) FROM HUMAN BLASTOCYSTS STEM CELLS” (Cellartis AB, priority 2007, published 2010)

Legend:
[1] = tested on: hBS cells; experiment: Sox17/Sox7 immunostaining of Activin A treated hBS cell cultures; assay type: cell-based, human; conditions: after 4 days in Activin A; of the remaining cells
Source text: We used Activin A, and Activin A in combination with Wnt3a and/or FGF2 to generate DE. After 4 to 5 days in Stage I the hBS cell colony differentiated and genetic markers for early DE were examined using quantitative real-time real time-PCR (Q-PCR). Activin A induced a strong wave of early endoderm at day 3 to 5, and was highlighted by high expression levels of Sox17, HNF3beta (HNF3b or HNF3b) and Cxcr4 expression (FIG. 4) and then reduced to near baseline levels (data not shown). […] Furthermore they up regulate early liver markers like AFP or AAT. At this early stage in differentiation and development, this indicates the presence of extraembryonic endoderm (ExE) in intrinsically differentiating colonies (FIGS. 5 and 10). The expression data were confirmed by co-staining of Sox17/Sox7, Sox17/Cxcr4, Sox17/Oct4, Sox7/HNF3b (data not shown). […] The changes of gene expression after Activin A treatment were associated to morphological changes and distinct differentiation pattern of the colonies (FIG. 2). After 4 to 5 days induction with Activin A containing medium cells gathered together and formed a ring of epithelial cells around the colony. […]
Activin A induces definitive endoderm detected by a combination of Sox17+/Sox7−, 80-90% of the total cells in a Activin A or Activin A/FGF2 treated culture are estimated to be Sox17 positive and negative for Sox7 (manual counting in microscope). […]

[2] = tested on: hESC line SA002; experiment: Real-time PCR after exposure to activin A or activin B; assay type: cell-based, human; conditions: 100 ng/ml, 5 ng/ml bFGF, 5 days
Experimental: Undifferentiated hESC line SA002 were exposed to either activin A (100 ng/ml) or activin B (100 ng/ml) in the presence of 5 ng/ml bFGF for 5 days and analyzed for gene expression.
mRNA expression of Foxa2, Sox17, CXCR4, Sox7, CDX2, AAT was measured by real-time PCR using the ABI/TaqMan method. In short, RNA was isolated from the cell cultures by using Qiagen's RNeasy system. cDNA was synthesized by using the ABI high capacity cDNA synthesis kit. RT-PCR was performed in a ABI 7500 by using TaqMan probe. The expression level was normalized to CREBBP expression.

B1: Activin A: TGF-beta family member used at 100 ng/ml to induce definitive endoderm (protein, UniProt P08476 311-426, looked up)
Inhibin beta A chain: GLECDGKVNICCKKQFFVSFKDIGWNDWIIAPSGYHANYCEGECPSHIAGTSGSSLSFHSTVINHYRMRGHSPFANLKSCCVPTKLRPMSMLYYDDGQNIIKKDIQNMIVEECGCS
modifications: Inhibin beta A chain
notes: TGF-beta family member used at 100 ng/ml to induce definitive endoderm
Sox17 positive cells [1]: more than 70%

B2: activin B: activin B, 100 ng/ml, substituted for activin A for induction of endoderm (protein, UniProt P09529 293-407, looked up)
Inhibin beta B chain: GLECDGRTNLCCRQQFFIDFRLIGWNDWIIAPTGYYGNYCEGSCPAYLAGVPGSASSFHTAVVNQYRMRGLNPGTVNSCCIPTKLSTMSMLYFDDEYNIVKRDVPNMIVEECGCA
modifications: Inhibin beta B chain
mRNA expression of endodermal markers Foxa2, Sox17 and CXCR4 compared to activin A [2]: either the same or even higher
mRNA expression of extraembryonal markers Sox7, CDX2 and AAT compared to activin A [2]: the same or lower
